B1: NRC3_wobSeed53_DR2_G9A_o1 (dsDNA)
DNA 1: GCCCTTACAGGTCACGAGGTTATAGCACGACGAGCGGCGATTGACAGCGTAGAATGAAGG
DNA 2: CCTTCATTCTACGCTGTCAATCGCCGCTCGTCGTGCTATAACCTCGTGACCTGTAAGGGC
B2: NRC3_wobSeed66_DR2_A6T_o1 (dsDNA)
DNA 1: GCAATTCAGGGTCACTAGGCCAGAGTAGGTACGAATGCGATTGACAGCGTAGAATGAAGG
DNA 2: CCTTCATTCTACGCTGTCAATCGCATTCGTACCTACTCTGGCCTAGTGACCCTGAATTGC
B3: NRC3_wobSeed76_DR3_A16C_o1 (dsDNA)
DNA 1: GCCCTACTGGGCCAACAAGGTCATTGATGCCGATAAGCGATTGACAGCGTAGAATGAAGG
DNA 2: CCTTCATTCTACGCTGTCAATCGCTTATCGGCATCAATGACCTTGTTGGCCCAGTAGGGC
B4: NRC3_wobSeed25_DR1_A5T_o1 (dsDNA)
DNA 1: GCCATACTAGGTCAAAGGTCAAAGTCGAGCCAACCAGCGATTGACAGCGTAGAATGAAGG
DNA 2: CCTTCATTCTACGCTGTCAATCGCTGGTTGGCTCGACTTTGACCTTTGACCTAGTATGGC
B5: NRC3_wobSeed25_DR1_A6T_o1 (dsDNA)
DNA 1: B4 DNA 1 with T5A, A6T
DNA 2: B4 DNA 2 with T55A, A56T
B6: NRC3_wobSeed25_DR1_G24A_o1 (dsDNA)
DNA 1: B4 DNA 1 with T5A, G24A
DNA 2: B4 DNA 2 with C37T, A56T
B7: NRC3_wobSeed44_DR1_A6C_o1 (dsDNA)
DNA 1: GCTGACTGAGGTTAAAGATCAGGGAACGTGGCGTCGGCGATTGACAGCGTAGAATGAAGG
DNA 2: CCTTCATTCTACGCTGTCAATCGCCGACGCCACGTTCCCTGATCTTTAACCTCAGTCAGC
B8: NRC3_wobSeed65_DR2_A5C_o1 (dsDNA)
DNA 1: GCATCTGTAGGTTATCGGGTCATTCAGTTTGCGCATGCGATTGACAGCGTAGAATGAAGG
DNA 2: CCTTCATTCTACGCTGTCAATCGCATGCGCAAACTGAATGACCCGATAACCTACAGATGC
B9: NRC3_wobSeed120_DR4_G5C_o1 (dsDNA)
DNA 1: GCCCCAGTAGGTTACGAGGGGGCATTCAGTGCGAATGCGATTGACAGCGTAGAATGAAGG
DNA 2: CCTTCATTCTACGCTGTCAATCGCATTCGCACTGAATGCCCCCTCGTAACCTACTGGGGC
B10: NRC3_wobSeed77_DR3_A18G_o1 (dsDNA)
DNA 1: GCACTTACGGGTCAACGGGGTTATAGCACGCGTATAGCGATTGACAGCGTAGAATGAAGG
DNA 2: CCTTCATTCTACGCTGTCAATCGCTATACGCGTGCTATAACCCCGTTGACCCGTAAGTGC
B11: NRC3_wobSeed121_DR5_A26T_o1 (dsDNA)
DNA 1: GCCAAACTAGGTCACCGGAAGGTCATAGTCCGCATGGCGATTGACAGCGTAGAATGAAGG
DNA 2: CCTTCATTCTACGCTGTCAATCGCCATGCGGACTATGACCTTCCGGTGACCTAGTTTGGC
B12: NRC3_wobSeed30_DR1_T5C_o1 (dsDNA)
DNA 1: GCACCAGCAGGCCAAGGGTCACTCAAGATTAGTCCGGCGATTGACAGCGTAGAATGAAGG
DNA 2: CCTTCATTCTACGCTGTCAATCGCCGGACTAATCTTGAGTGACCCTTGGCCTGCTGGTGC
B13: NRC3_wobSeed33_DR1_T4G_o1 (dsDNA)
DNA 1: GCAGCTCTAGGTAAAAGTTCAGTGAATCCCGAGGATGCGATTGACAGCGTAGAATGAAGG
DNA 2: CCTTCATTCTACGCTGTCAATCGCATCCTCGGGATTCACTGAACTTTTACCTAGAGCTGC
B14: NRC3_wobSeed64_DR2_G19A_o1 (dsDNA)
DNA 1: GCTAGCCTAGGTCATTGGACCAGTATAGTACGCATCGCGATTGACAGCGTAGAATGAAGG
DNA 2: CCTTCATTCTACGCTGTCAATCGCGATGCGTACTATACTGGTCCAATGACCTAGGCTAGC
B15: NRC3_wobSeed29_DR1_G24A_o1 (dsDNA)
DNA 1: GCGCTTACGGGTCAAAGGTTATAACATGAATAGAATGCGATTGACAGCGTAGAATGAAGG
DNA 2: CCTTCATTCTACGCTGTCAATCGCATTCTATTCATGTTATAACCTTTGACCCGTAAGCGC
B16: NRC3_wobSeed29_DR1_C4A_o1 (dsDNA)
DNA 1: B15 DNA 1 with C4A, A24G
DNA 2: B15 DNA 2 with T37C, G57T
B17: NRC3_wobSeed97_DR4_G27T_o1 (dsDNA)
DNA 1: GCCAAACTAGGTCACGAAAGGTCAAATTCGAATGACGCGATTGACAGCGTAGAATGAAGG
DNA 2: CCTTCATTCTACGCTGTCAATCGCGTCATTCGAATTTGACCTTTCGTGACCTAGTTTGGC
B18: NRC3_wobSeed97_DR4_C29G_o1 (dsDNA)
DNA 1: B17 DNA 1 with T27G, C29G
DNA 2: B17 DNA 2 with G32C, A34C
B19: NRC3_wobSeed41_DR1_T4A_o1 (dsDNA)
DNA 1: GCAAATGTAGGTTAAGGGTCATTCAGGTTGGTTCGCGCGATTGACAGCGTAGAATGAAGG
DNA 2: CCTTCATTCTACGCTGTCAATCGCGCGAACCAACCTGAATGACCCTTAACCTACATTTGC
B20: NRC3_wobSeed28_DR1_T26C_o1 (dsDNA)
DNA 1: GCCCTACTGGGCCAAAGGTCATTGACTCCAATGCTCGCGATTGACAGCGTAGAATGAAGG
DNA 2: CCTTCATTCTACGCTGTCAATCGCGAGCATTGGAGTCAATGACCTTTGGCCCAGTAGGGC
B21: NRC3_wobSeed28_DR1_C12G_o1 (dsDNA)
DNA 1: B20 DNA 1 with C12G, C26T
DNA 2: B20 DNA 2 with G35A, G49C
B22: NRC3_wobSeed125_DR5_C15G_o1 (dsDNA)
DNA 1: GCCCTTACGGGTCAGTGACAGGTTATAGCATTTGGAGCGATTGACAGCGTAGAATGAAGG
DNA 2: CCTTCATTCTACGCTGTCAATCGCTCCAAATGCTATAACCTGTCACTGACCCGTAAGGGC
B23: NRC3_wobSeed124_DR5_A29T_o1 (dsDNA)
DNA 1: GCCCTACTGGGCCATTCAGAGGTCATTGTTCATATGGCGATTGACAGCGTAGAATGAAGG
DNA 2: CCTTCATTCTACGCTGTCAATCGCCATATGAACAATGACCTCTGAATGGCCCAGTAGGGC
B24: NRC3_wobSeed40_DR1_G16A_o1 (dsDNA)
DNA 1: GCTAGCCTAGGTCATAGGCCAGTATACCACGCGAACGCGATTGACAGCGTAGAATGAAGG
DNA 2: CCTTCATTCTACGCTGTCAATCGCGTTCGCGTGGTATACTGGCCTATGACCTAGGCTAGC

In PMC6555819, “Comprehensive study of nuclear receptor DNA binding provides a revised framework for understanding receptor specificity” one finds binding signal data, which are given here for 24 molecules.

Positions count from the first letter of the chain named.

The target in the data set is PPARa:RXRa (Homo sapiens, UniProt Q07869;P19793 full;full). Put plainly: no ligand; PBM; 270 nM : 90 nM RXRa; PBS pH 7.4, 2% milk, 0.02% Triton X-100, 1 mM DTT, BSA, 0.4 mg/ml salmon testes DNA. The conditions noted are these: tags: GST kept;His cleaved; copies: 1;1; label: surface-attached array probe. Summed up: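 Scanned fluorescence from custom Agilent 4×180K protein-binding microarrays was regression-normalized. Binding z-scores use random background probes as reference. Ligand-free nuclear receptor dimers were incubated on the arrays for 1 h and detected with antibodies against each partner (one per run).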
PPARa:RXRa, sequence (Q07869 whole entry, chain 1 of 2): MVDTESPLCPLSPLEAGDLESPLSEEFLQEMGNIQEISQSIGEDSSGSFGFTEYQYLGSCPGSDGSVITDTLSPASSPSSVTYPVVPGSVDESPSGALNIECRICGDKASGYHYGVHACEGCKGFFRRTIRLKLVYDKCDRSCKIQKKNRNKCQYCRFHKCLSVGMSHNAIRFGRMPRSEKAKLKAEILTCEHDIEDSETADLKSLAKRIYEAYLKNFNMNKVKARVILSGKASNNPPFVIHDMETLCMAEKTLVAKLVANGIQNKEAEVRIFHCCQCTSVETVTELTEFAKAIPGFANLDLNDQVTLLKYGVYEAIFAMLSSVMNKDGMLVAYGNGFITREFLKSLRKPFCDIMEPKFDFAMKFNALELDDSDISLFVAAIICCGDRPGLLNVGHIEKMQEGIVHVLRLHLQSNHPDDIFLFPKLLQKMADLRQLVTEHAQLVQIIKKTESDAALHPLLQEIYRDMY
PPARa:RXRa, sequence (P19793 whole entry, chain 2 of 2): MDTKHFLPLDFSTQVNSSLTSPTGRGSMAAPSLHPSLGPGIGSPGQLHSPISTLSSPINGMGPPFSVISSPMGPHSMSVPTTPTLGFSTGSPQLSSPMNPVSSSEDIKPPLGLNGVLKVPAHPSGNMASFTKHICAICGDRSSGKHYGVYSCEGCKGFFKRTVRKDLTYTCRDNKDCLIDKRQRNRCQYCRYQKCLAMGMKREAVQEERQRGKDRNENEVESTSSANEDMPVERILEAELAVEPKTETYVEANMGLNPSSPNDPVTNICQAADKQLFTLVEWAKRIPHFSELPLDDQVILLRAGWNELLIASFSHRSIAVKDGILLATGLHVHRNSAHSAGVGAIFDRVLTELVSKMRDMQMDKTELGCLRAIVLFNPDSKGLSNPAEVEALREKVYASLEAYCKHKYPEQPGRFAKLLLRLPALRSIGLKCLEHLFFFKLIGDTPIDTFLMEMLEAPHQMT
Regarding B1, the binding signal is 6.65 PBM z-score against 500 random probes. The result for B2 reads 6.63 PBM z-score against 500 random probes; that for B3, 3.78 PBM z-score against 500 random probes; that for B4, 8.27 PBM z-score against 500 random probes. With B5, the binding signal is 8.22 PBM z-score against 500 random probes.

Take B6: the binding signal was 8.04 PBM z-score against 500 random probes.

Take B7: the binding signal was 3.82 PBM z-score against 500 random probes.

B8: the binding signal is 3.8 PBM z-score against 500 random probes. Take B9: the binding signal was 3.76 PBM z-score against 500 random probes. As for B10, the binding signal was 6.51 PBM z-score against 500 random probes.

Regarding B11, the binding signal is 6.6 PBM z-score against 500 random probes. Regarding B12, the binding signal was 3.87 PBM z-score against 500 random probes.

On to B13, for which the binding signal is 3.86 PBM z-score against 500 random probes. For B14, the binding signal is 3.84 PBM z-score against 500 random probes. Next, B15: 7.28 PBM z-score against 500 random probes. On to B16, for which the binding signal is 7.27 PBM z-score against 500 random probes. For the molecule B17, the binding signal was 7.06 PBM z-score against 500 random probes. As for B18, the binding signal was 6.97 PBM z-score against 500 random probes. As for B19, the binding signal was 6.91 PBM z-score against 500 random probes.

Consider B20, for which the binding signal was 6.99 PBM z-score against 500 random probes. Regarding B21, the binding signal was 6.86 PBM z-score against 500 random probes. Next, B22: 3.89 PBM z-score against 500 random probes. Take B23: the binding signal is 3.73 PBM z-score against 500 random probes. For the molecule B24, the binding signal was 3.72 PBM z-score against 500 random probes.
